# Ends that are not written are not given here. * marks the point of attachment. Biotin = O=C1N[C@H]2[C@H](CS[C@H]2CCCCC(=O)*)N1
# B1: anti-lactadherin antibody 399A12 (antibody, V domains shown)
# VH: QVTLKESGPGVLQSSQTLSLTCSFSGFSLSTSGLGVIWIRQPSGAGLEWLAQIYWDDNKRYNPSLKSRLTISKDTSRNQVFLKITPVDTADTATYYCARRTFYDYDEGFYAMDYWGQGTSVTVSS
# VL: DIQMTQTTSSLSASLGDRVTITCRASQDISNYLNWYQQKPDGTIKLLIYYASRLHSGVPSRFSGSGSGTDYSLTISNLEQEDIATYFCQQGNTLPLTFGAGTKLELKR
# notes: Murine monoclonal, kappa light chain; Variable regions identical to those of 416H9; also called hybridoma 399A12; LMBP 9491CB
# B2: anti-lactadherin antibody 416H9 (antibody, IgG1, V domains shown)
# VH: QVTLKESGPGVLQSSQTLSLTCSFSGFSLSTSGLGVIWIRQPSGAGLEWLAQIYWDDNKRYNPSLKSRLTISKDTSRNQVFLKITPVDTADTATYYCARRTFYDYDEGFYAMDYWGQGTSVTVSS
# VL: DIQMTQTTSSLSASLGDRVTITCRASQDISNYLNWYQQKPDGTIKLLIYYASRLHSGVPSRFSGSGSGTDYSLTISNLEQEDIATYFCQQGNTLPLTFGAGTKLELKR
# notes: also called hybridoma 416H9; LMBP 9492CB
# B3: anti-lactadherin antibody 346B6 (antibody, IgG1, V domains shown)
# VH: EFQLQQSGPELVKPGASVRISCKASGYSFTDYNMNWVKQSDGKTLEWIGVINPDYGTTNNNQRFRGKATLTLDLSSSTAYMQLNSLTSEDSAVYYCARGGDYGAGYALDYWGQGTSVTVSS
# VL: QIVLTQSPAIMSASPGEKVTMTCSASSSVSYMYWYQQKPGSSPRLLIYDTSNLASGVPVRFSGSGSGTSYSLTISRMEAEDAATYYCQQWSSYPPTFGAGTKLELKR
# notes: VH identical to that of 311A7; also called hybridoma 346B6; LMBP 9490CB
# B4: chimeric 311A7 antibody (antibody, V domains shown)
# VH: EFQLQQSGPELVKPGASVRISCKASGYSFTDYNMNWVKQSDGKTLEWIGVINPDYGTTNNNQRFRGKATLTLDLSSSTAYMQLNSLTSEDSAVYYCARGGDYGAGYALDYWGQGTSVTVSS
# VL: QIVLTQSPAIMSASPGEKVTITCSASSSVSYMYWFQQKPGTSPKLWIYSTSNLASGVPARFSGSGSGTSYSLTISRMEAEDAATYYCQQRSSYPRTFGGGTKLEIKR
# B5: huMc3 antibody (antibody, V domains shown)
# VH: EVQLVQSGAEVKKPGASVKVSCKASGYSFTGYTMHWVKQSPGMNLEWIGLINPYNGGTVYNQKFQDKATLTVDKSTSTAYMELSSLRSEDTAVYFCARRWRYTMDYWGQGTLVTVSS
# VL: DIVMTQSPDSLAVSLGERATITCKASQDVSIGVAWYQQKPGQSPKLLIYSASSRYTGVPDRFSGSGSGTDFTLTISSLQAEDVAVYYCQQHYTSPFTFGSGTKVEIK
# B6: anti-lactadherin antibody 215A9 (antibody, IgG1, V domains shown)
# VH: QVSLKESGPGILQSSQTLSLTCSFSGFSLSTSGMGVSWIRQPSGKGLEWLAHIYWNDDKRYNPSLKSRLTISKDTSRDQVFLKITSVDTADTATYFCARRPRFYRDYDEGIDFWGQGTTLTVSS
# VL: QAVVTQESALTTSPGETVTLTCRSSTGAVTTNNYANWVQEKPDHLFTGLIGGTNNRTPGVPARFSGSLIGDKAALTITGAQTEDEAIYFCALWYSNLWVFGGGTKLTVLG
# notes: also called 2154A9; hybridoma 215A9
# Assays:
# [1] = biological target: T1, peptide … (SEQ ID NO:51), N-terminally biotinylated (human); test: ELISA, biotin-peptide on neutravidin plate, antibody 1 ug/ml
# T1 sequence (peptide, N-terminally biotinylated): EISQEVRGDVFPSY
# [2] = biological target: T2, peptide … (SEQ ID NO:77), N-terminally biotinylated (human); test: as above
# T2 sequence (peptide, N-terminally biotinylated): EISQEVAADVFPSY
# [3] = biological target: T3, peptide … (SEQ ID NO:75), N-terminally biotinylated (human); test: as above
# T3 sequence (peptide, N-terminally biotinylated): EISQEVRADVFPSY
# [4] = biological target: T4, peptide … (SEQ ID NO:74), N-terminally biotinylated (human); test: as above
# T4 sequence (peptide, N-terminally biotinylated): EISQEVAGDVFPSY
# [5] = biological target: T5, peptide EISQEVRAAVFPSY (SEQ ID NO:78), N-terminally biotinylated (human); test: as above
# T5 peptide: Biotin-EISQEVRAAVFPSY
# [6] = biological target: T6, peptide EISQEVAAAVFPSY (SEQ ID NO:80), N-terminally biotinylated (human); test: as above
# T6 peptide: Biotin-EISQEVAAAVFPSY
# [7] = biological target: T7, peptide NGGLCEEISQEVRG (SEQ ID NO:81), N-terminally biotinylated (human); test: as above
# T7 construct: Human lactadherin 14-mer with part of the RGD domain at the C-terminus
# T7 peptide: Biotin-NGGLCEEISQEVRG
# [8] = biological target: T8, peptide EISQEVRGAVFPSY (SEQ ID NO:76), N-terminally biotinylated (human); test: as above
# T8 peptide: Biotin-EISQEVRGAVFPSY
# [9] = biological target: T9, peptide DVFPSYTCTCLKGY (SEQ ID NO:85), N-terminally biotinylated (human, cysteine pairing not given here); test: as above
# T9 construct: Human lactadherin 14-mer with part of the RGD domain at the N-terminus
# T9 peptide: Biotin-DVFPSYTCTCLKGY
# [10] = biological target: T10, peptide CHNGGLCEEISQEV (SEQ ID NO:83), N-terminally biotinylated (human, cysteine pairing not given here); test: as above
# T10 peptide: Biotin-CHNGGLCEEISQEV
# [11] = biological target: T11, peptide VFPSYTCTCLKGYA (SEQ ID NO:86), N-terminally biotinylated (human, cysteine pairing not given here); test: as above
# T11 peptide: Biotin-VFPSYTCTCLKGYA
# [12] = biological target: T12, peptide EISQEVAGAVFPSY (SEQ ID NO:79), N-terminally biotinylated (human); test: as above
# T12 peptide: Biotin-EISQEVAGAVFPSY
# [13] = biological target: T13, peptide GDVFPSYTCTCLKG (SEQ ID NO:84), N-terminally biotinylated (human, cysteine pairing not given here); test: as above
# T13 construct: Human lactadherin 14-mer with part of the RGD domain at the N-terminus
# T13 peptide: Biotin-GDVFPSYTCTCLKG
# [14] = biological target: T14, peptide HNGGLCEEISQEVR (SEQ ID NO:82), N-terminally biotinylated (human); test: as above
# T14 construct: Human lactadherin 14-mer with part of the RGD domain at the C-terminus
# T14 peptide: Biotin-HNGGLCEEISQEVR
# human lactadherin = biological target: T15, human lactadherin (human, UniProt Q08431 24-387); test: cell-based or functional assay
# T15 sequence (looked up): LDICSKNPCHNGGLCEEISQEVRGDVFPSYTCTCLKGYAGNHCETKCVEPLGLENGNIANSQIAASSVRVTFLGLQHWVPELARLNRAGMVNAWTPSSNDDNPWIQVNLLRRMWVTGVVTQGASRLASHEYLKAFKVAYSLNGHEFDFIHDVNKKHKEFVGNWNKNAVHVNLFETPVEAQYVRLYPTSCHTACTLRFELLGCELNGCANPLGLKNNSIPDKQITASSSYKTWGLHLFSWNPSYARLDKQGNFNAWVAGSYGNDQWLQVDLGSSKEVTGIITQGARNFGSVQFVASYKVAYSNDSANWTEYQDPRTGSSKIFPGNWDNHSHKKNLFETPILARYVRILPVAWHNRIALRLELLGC
# [15] = biological target: T16, peptide EISQEVAGDVFPSY (SEQ ID NO:74), N-terminally biotinylated (human); test: ELISA, biotin-peptide on neutravidin plate, antibody 1 ug/ml
# T16 peptide: Biotin-EISQEVAGDVFPSY
# [16] = biological target: T17, peptide EISQEVRADVFPSY (SEQ ID NO:75), N-terminally biotinylated (human); test: as above
# T17 peptide: Biotin-EISQEVRADVFPSY
# [17] = biological target: T18, peptide EISQEVAADVFPSY (SEQ ID NO:77), N-terminally biotinylated (human); test: as above
# T18 peptide: Biotin-EISQEVAADVFPSY
Binder,absorbance 450 nm minus 540 nm [1] [absorbance],absorbance 450 nm minus 540 nm [2] [absorbance],absorbance 450 nm minus 540 nm [3] [absorbance],absorbance 450 nm minus 540 nm [4] [absorbance],absorbance 450 nm minus 540 nm [5] [absorbance],absorbance 450 nm minus 540 nm [6] [absorbance],absorbance 450 nm minus 540 nm [7] [absorbance],absorbance 450 nm minus 540 nm [8] [absorbance],absorbance 450 nm minus 540 nm [9] [absorbance],absorbance 450 nm minus 540 nm [10] [absorbance],absorbance 450 nm minus 540 nm [11] [absorbance],absorbance 450 nm minus 540 nm [12] [absorbance],absorbance 450 nm minus 540 nm [13] [absorbance],absorbance 450 nm minus 540 nm [14] [absorbance],"decrease of SKOV-3 cell migration towards lactadherin, antibody at 5 ug/mL (human lactadherin) [%]","inhibition of SKOV-3 cell adhesion to coated human lactadherin, antibody at 5 ug/mL (human lactadherin) [%]",absorbance 450 nm minus 540 nm [15] [absorbance],absorbance 450 nm minus 540 nm [16] [absorbance],absorbance 450 nm minus 540 nm [17] [absorbance],"IC50 (nM), inhibition of cell adhesion to human lactadherin (human lactadherin) [nM]"
B1,1.62,0.2,0.69,0.24,0.02,0.02,0.03,0.03,0.04,0.02,0.03,0.03,0.03,0.02,> 80,> 70,–,–,–,–
B2,1.76,0.19,0.7,0.25,0.02,0.02,0.02,0.02,0.03,0.03,0.03,0.05,0.03,0.03,> 80,> 70,–,–,–,–
B3,1,–,–,–,0.02,0.01,0.02,0.02,0.03,0.02,0.03,0.07,0.02,0.02,–,25,0.02,0.01,0.01,–
B4,–,–,–,–,–,–,–,–,–,–,–,–,–,–,–,–,–,–,–,7.36
B5,–,–,–,–,0.06,0.04,0.09,0.06,0.09,0.09,0.07,0.04,0.08,0.08,–,> 70,0.04,0.03,0.05,6.48
B6,1.1,0.23,0.74,0.52,0.02,0.02,0.03,0.1,0.04,0.03,0.05,0.03,0.04,0.03,–,> 70,–,–,–,–

# Reference: patent publication WO2013139956A1 (dated 2013)
